The series has as its target thrombin (alpha-thrombin) (Homo sapiens) (UniProt P00734+P00734). Put plainly: filter.

pKd: −log10 of the molar value.

For orientation: pKd means the Kd on a negative log10 scale, so that one unit is a factor of ten. For the sequence “ACTGCCTAGGTTGGGTAGGGTGGTGGCAGT [ARC2691]”, the negative-log Kd (pKd) (2'-OMe inosine at 14, rest DNA [14]) is 8.64.

For the sequence “ACTGCCTAGGTTGGGTAGGGTGGTGGCAGT [ARC2673]”, the negative logarithm of the Kd (pKd) (deoxyinosine at 4 [deoxyinosine at 4 (parent base G)]) was 9.68. “ACTGCCTAGGTTGGGTAGGGTGGTGGCAGT [ARC2677]” had a pKd (deoxyinosine at 14 [14]) of 9.70.

For “ACTGCCTAGGTTGGGTAGGGTGGTGGCAGT [ARC2675]”, the pKd (deoxyinosine at 10 [10]) was 8.69. In turn, “ACTGCCTAGGTTGGGTAGGGTGGTGGCAGT [ARC2678]” showed a pKd (deoxyinosine at 15 [15]) of 8.84. Turning to “ACTGCCTAGGTTGGGTAGGGTGGTGGCAGT [ARC2699]”, the negative-log Kd (pKd) (2'-OMe inosine at 26, rest DNA [26 = 2'-OMe inosine (written as parent base G), rest DNA]) is 9.89. The sequence “ACTGCCTAGGTTGGGTAGGGTGGTGGCAGT [ARC2676]” gave a negative-log Kd (pKd) (deoxyinosine at 13 [13]) of 9.16.

Take “ACTGCCTAGGTTGGGTAGGGTGGTGGCAGT [ARC2681]”: where the note is “deoxyinosine at 20 [20]”, the pKd was 9.48.

With “ACTGCCTAGGTTGGGTAGGGTGGTGGCAGT [ARC2695]”, the pKd (2'-OMe inosine at 20, rest DNA [20]) is 8.68.

Turning to “ACTGCCTAGGTTGGGTAGGGTGGTGGCAGT [ARC2683]”, the pKd (deoxyinosine at 23 [23]) is 9.82.

“ACTGCCTAGGTTGGGTAGGGTGGTGGCAGT [ARC2674]” gave a pKd (deoxyinosine at 9 [9]) of 9.34. Take “ACTGCCTAGGTTGGGTAGGGTGGTGGCAGT [ARC2698]”: the negative logarithm of the Kd (pKd) (2'-OMe inosine at 25, rest DNA [25 = 2'-OMe inosine (written as parent base G), rest DNA]) is 9.78. “ACTGCCTAGGTTGGGTAGGGTGGTGGCAGT [ARC2679]”: the pKd (deoxyinosine at 18 [18]) is 9.45.

Sequence “ACTGCCTAGGTTGGGTAGGGTGGTGGCAGT [ARC2697]” showed a negative-log Kd (pKd) (2'-OMe inosine at 23, rest DNA [23]) of 8.81. In turn, “ACTGCCTAGGTTGGGTAGGGTGGTGGCAGT [ARC2680]” showed a negative logarithm of the Kd (pKd) (deoxyinosine at 19 [19]) of 9.62. In turn, “ACTGCCTAGGTTGGGTAGGGTGGTGGCAGT [ARC2685]” gave a pKd (deoxyinosine at 26 [26]) of 9.65. Consider “ACTGCCTAGGTTGGGTAGGGTGGTGGCAGT [ARC2700]”, for which the pKd (2'-OMe inosine at 29, rest DNA [29 = 2'-OMe inosine (written as parent base G), rest DNA]) was 10.34. As for “ACTGCCTAGGTTGGGTAGGGTGGTGGCAGT [ARC2692]”, the pKd (2'-OMe inosine at 15, rest DNA [15]) was 8.74. “ACTGCCTAGGTTGGGTAGGGTGGTGGCAGT [ARC2687]” showed a pKd (2'-OMe inosine at 4, rest DNA [4]) of 9.66. Take “ACTGCCTAGGTTGGGTAGGGTGGTGGCAGT [ARC2682]”: the pKd (deoxyinosine at 22 [22]) was 8.89. Take “ACTGCCTAGGTTGGGTAGGGTGGTGGCAGT [ARC2684]”: the pKd (deoxyinosine at 25 [25]) is 9.73. In the case of “ACTGCCTAGGTTGGGTAGGGTGGTGGCAGT [ARC2686]”, the negative logarithm of the Kd (pKd) (deoxyinosine at 29 [29]) was 9.72.

Source of the values: patent US20090221680.
